Measured values as given in patent US20230295301A1 (SHANGHAI JUNSHI BIOSCIENCES, published 2023).

Columns and labels:
huCTLA4 N-his G28A = target: T1, huCTLA4 N-his G28A (human, UniProt P16410 37-162); assay: ELISA: huCTLA4 N-his G28A coated at 1.0 µg/mL, huJS007-47 2.5-fold dilutions from 1000 to 0.042 ng/mL, HRP goat anti-human IgG (Fc), OD 450-620 nm
T1 construct: … changed to …; not shown: N-terminal his-tag
Protocol: (§1) The huCTLA-4 mutants used in the ELISA assays included non-mutated HXT huCTLA4 his, and mutated huCTLA4 N-his P27A, huCTLA4 N-his G28A, huCTLA4 N-his K29A and huCTLA4 N-his T31A. HuCTLA-4 his and its mutants were diluted with PBS (Hyclone) to 1.0 μg/mL, and a plate was coated with the dilution, incubated in an incubator at 37° C. for 90 min, washed and then blocked with 2% BSA. After the plate was washed, the monoclonal antibody huJS007-47 (serially diluted 2.5-fold with 2% BSA from 1000 ng/mL to 0.042 ng/mL) was added. The plate was incubated at 37° C. for 60 min and washed. A 1:5000 diluted HRP-conjugated goat anti-human antibody IgG (Fc specific) (Sigma, Catalog No. A0170) was used for detection. The plate was incubated at 37° C. for 60 min and then incubated with HRP substrate TMB (Sigma, Catalog No. T2885) at 37° C. for 15 min for color development. Finally, 2 M of hydrochloric acid was added to terminate the color development; during the addition, bubbles were avoided. Reading (wavelength: 450/620 nm) was done within 10 min using a microplate reader.

[1] = target: T2, HXT huCTLA4 his (non-mutated) (human, UniProt P16410 37-162); assay: ELISA: antigen coated at 1.0 µg/mL, huJS007-47 2.5-fold dilutions from 1000 to 0.042 ng/mL, HRP goat anti-human IgG (Fc), OD 450-620 nm; unit from the axis 'Log:ng/mL'
T2 construct: not shown: his-tag
T2 sequence: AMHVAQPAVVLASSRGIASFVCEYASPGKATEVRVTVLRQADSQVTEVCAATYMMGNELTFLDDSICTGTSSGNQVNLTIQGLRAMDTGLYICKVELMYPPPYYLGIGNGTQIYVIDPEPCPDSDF
Protocol: as §1

hCTLA4 Nhis T31A = assay: as above
Protocol: as §1

huCTLA4 N-his P27A = target: T3, huCTLA4 N-his P27A (human, UniProt P16410 37-162); assay: as above
T3 construct: … changed to …; not shown: N-terminal his-tag
Protocol: as §1

huCTLA4 N-his K29A = target: T4, huCTLA4 N-his K29A (human, UniProt P16410 37-162); assay: as above
T4 construct: … changed to …; not shown: N-terminal his-tag
Protocol: as §1

B1: huJS007-47 (antibody, human IgG1, kappa, V domains shown)
VH: QVQLQESGPGLVKPSQTLSLTCTVSAYSITSGYYWNWIRQHPGKGLEWIGYIGYDGSNNYNPSLKSRVTISRDTSKNQFSLKLSSVTAADTAVYYCARDYYSGYFDSWGQGTTLTVSS
VL: DIQMTQSPSSLSASVGDRVTITCRASQNVGTYVAWYQQKPGKVPKPLIYSTSYRYSGVPSRFSGSGSGTDFTLTISSLQPEDVATYFCHQYDTYPLTFGAGTKLELKR
notes: also called JS007 antibody; monoclonal antibody huJS007-47
**Q.** Does B1 bind (huCTLA4 N-his G28A)?
**A.** no binding (tested: 1000 ng/mL (log 3))

**Q.** What about the EC50 [1] of the same binder?
**A.** 0.0136 µg/mL

**Q.** And the EC50 (hCTLA4 Nhis T31A)?
**A.** 0.0136 µg/mL

**Q.** What about the EC50 (huCTLA4 N-his P27A) of the same binder?
**A.** 0.0333 µg/mL

**Q.** And the EC50 (huCTLA4 N-his K29A)?
**A.** 0.0467 µg/mL
